Reference: publication PMC4372375

Biological target: pancreatic polypeptide (UniProt P01298)

B1: pancreatic polypeptide (peptide)
chain: APLEPVYPGDNATPEQMAQYAADLRRYINMLTRPRY
LDH release assay, % cell death of SH-SY5Y cells after 30 h with 10 μM PP oligomers formed with heparin (PP incubated without heparin: no significant LDH release): 35%
